Source: US20100190682A1, “USE OF PROTEIN HYDROLYSATES TO STABILIZE METALLOPROTEASE DETERGENT FORMULATIONS” (priority 2007, published 2010)

Key:
[1] = in the presence of zinc ion concentrations lower than 15 mM; cited from earlier work
[2] = NprE stability at different storage concentrations (AGLA activity over time); type: physicochemical
Procedure: Samples were prepared containing the neutral metalloprotease, NprE, at a range of concentrations from 625 to 10000 ppm in 10 mM HEPES (N-(2-Hydroxyethyl)piperazine-N′-(2-ethanesulfonic acid)) buffer at pH 8.0. All samples, except the one control at 625 ppm NprE concentration, included 10% PPG and 0.5 mM CaCl2. All samples were incubated at a temperature of 32° C. over a period of 6 hours. NprE activity of the samples was measured using the AGLA activity assay at various time points.

NprE = target: T1, NprE (Bacillus amyloliquefaciens, UniProt P06832); assay: Remaining AGLA activity of NprE stability assay samples in DW-CT HDL detergent formulation; type: biochemical; conditions: no inhibitor; 2 mg/mL NprE incubated in HDL detergent formulation DW-CT, 32° C.
T1 construct: made in house; host or cells: Bacillus subtilis
T1 sequence (P06832 222-521): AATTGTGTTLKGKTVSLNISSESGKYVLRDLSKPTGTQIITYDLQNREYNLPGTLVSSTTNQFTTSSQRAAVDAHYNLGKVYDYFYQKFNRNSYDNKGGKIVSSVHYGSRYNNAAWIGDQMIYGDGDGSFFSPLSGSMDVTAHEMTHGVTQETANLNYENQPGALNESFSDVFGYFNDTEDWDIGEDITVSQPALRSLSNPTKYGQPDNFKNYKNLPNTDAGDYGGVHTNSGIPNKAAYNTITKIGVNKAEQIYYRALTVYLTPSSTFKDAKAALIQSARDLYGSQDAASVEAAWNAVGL
Procedure: The HDL detergent formulation used in this example was: DW-CT. This formulation has a 37% water content and was designed to make up to 90% by volume with 10% room (by volume) to add ingredients such as stabilizers or enzymes.
Assays were carried out using a 10% DW-CT detergent formulation made by mixing 5 mL of DW-CT (prepared as in Table 1), 1 mL of 500 mM HEPES at pH 8.0, and 44 mL distilled water.
Stability assay samples were prepared using five different candidate protein hydrolysates, as well as a control with no inhibitor added.
In general, 20 μL of inhibitor stock solution was pre-mixed with 10 μL of 50 mg/mL NprE stock solution. Then, 220 μL of 10% DW-CT detergent formulation in 10 mM HEPES was added to each sample so that the final NprE concentration was 2 mg/mL. Samples were incubated at 32° C. in a microtiter plate in a Thermomixer (Eppendorf).
The final concentration of enzyme in each sample was 2 mg/mL NprE. The final inhibitor concentrations in their respective samples were: 5.6 mg/mL of Amisoy, Amicase, HyPep 4601, or Proteose Peptone, respectively; or 7.2 mM of the casein hydrolysis product mixture (based on 12.5-fold dilution). […]
Remaining NprE activity of each of stability assay samples (prepared as above) was measured at various time points using the general AGLA activity assay except that the assay solution used was 50 mM MES, 2.5 mM CaCl2, 0.005% Tween 80 at pH 6.5.

In the case of “NprE: recombinant neutral metalloprotease: Bacillus amyloliquefaciens neutral metalloprotease cloned into Bacillus subtilis”, the “stability period under detergent formulation conditions” value [1] is given as “approximately 4 weeks”, the “NprE activity maintained for 1.5 hours” value ([2]; 10,000 μg/mL (or ppm) NprE, 10% PPG, 0.5 mM CaCl2, 10 mM HEPES pH 8.0, 32° C.) is given as “almost full activity” and the “NprE activity at 1.5 hr” value ([2]; 625, 1250 and 2500 ppm NprE, 10% PPG, 0.5 mM CaCl2, 10 mM HEPES pH 8.0, 32° C.) is given as roughly 60%. For the same substance, the “NprE activity over time, control sample” value ([2]; 625 ppm NprE, no added PPG or CaCl2, 10 mM HEPES pH 8.0, 32° C.) was “lost nearly all of its activity within the first 2 hours” and the “loss of original NprE activity in about an hour” value (NprE) was “more than 80%”.
